# Results: the supplement of paper PMC6757056
# ± gives the standard deviation of the averaged measurements.
# B1: library; a variant is named by its letters at N, in order (parent)
# chain: GCUGUCACCGAGAAACUGUGAAGUAUAUCUUAAACCUGGGCACUUAAAAGAUAUAUGGAGUUAGUAGUGCAACCUGCUCGGUCUGAUGAGUCCNNNNNNGGACGAAACAGC
# Legend:
# [1] = variants of: B1; assay: normalized RNA/DNA level without ligand (relative to sTRSVctl = 100) (log10 (% of sTRSVctl)); HEK293T; ligand: cyclic di-GMP (c-di-GMP-II aptamer); higher = less ribozyme self-cleavage, higher mRNA level; conditions: reporter: mCherry (pCS4076), ligand present: no
# Outline: (§1)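 Only sequences with at least 100 DNA reads were analyzed, from HEK293T cells transfected with 4 µg per 6-well well of ribozyme switch library plasmids 72 h before RNA extraction with EDTA. Any ligand was added 1 h before transfection. RNA level was defined as RNA over DNA reads, normalized to a spiked-in non-cleaving sequence or to the top sequences, then scaled and log-transformed. The top set was 25 sequences, and the scaling was ×100 followed by log10.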
# [2] = variants of: B1; assay: normalized RNA/DNA level with ligand (relative to sTRSVctl = 100) (log10 (% of sTRSVctl)); HEK293T; ligand: cyclic di-GMP (c-di-GMP-II aptamer); ligand concentration (+) RNA-Seq: 1 mM; higher = less ribozyme self-cleavage, higher mRNA level; conditions: reporter: mCherry (pCS4076), ligand present: yes
# Outline: as §1
Variant,normalized RNA/DNA level without ligand (log10) [1],normalized RNA/DNA level with ligand (log10) [2]
UUACAC,1.73 ± 0.034,1.84 ± 0.11
UUACAG,1.707 ± 0.0067,1.86 ± 0.14
UUACAU,1.677 ± 0.014,1.82 ± 0.1
UUACAA,1.639 ± 0.0043,1.82 ± 0.07
UUAAUC,1.77 ± 0.075,1.83 ± 0.14
UUAAUU,1.76 ± 0.072,1.88 ± 0.12
UUAAUA,1.64 ± 0.044,1.8 ± 0.16
AUAAUG,1.58 ± 0.034,1.75 ± 0.059
AUAAUC,1.677 ± 0.0067,1.77 ± 0.08
UUAGUU,1.77 ± 0.019,1.86 ± 0.14
UUAGUA,1.609 ± 0.0054,1.79 ± 0.13
UUAGUC,1.72 ± 0.048,1.83 ± 0.086
UUAUGU,1.7 ± 0.024,1.84 ± 0.11
UUAUGC,1.73 ± 0.012,1.81 ± 0.1
AUAGAU,1.58 ± 0.056,1.72 ± 0.12
AUAGAG,1.46 ± 0.13,1.73 ± 0.082
CGUUCG,1.81 ± 0.095,1.9 ± 0.16
AUACAC,1.71 ± 0.02,1.82 ± 0.081
AUACAG,1.59 ± 0.089,1.77 ± 0.04
CUAUGU,1.748 ± 0.012,1.84 ± 0.088
CUAUGA,1.6 ± 0.059,1.76 ± 0.058
CUAUGC,1.75 ± 0.042,1.86 ± 0.12
CUAUGG,1.75 ± 0.049,1.87 ± 0.09

Variant,normalized RNA/DNA level without ligand (log10) [1],normalized RNA/DNA level with ligand (log10) [2]
GUAUAC,1.661 ± 0.0097,1.81 ± 0.084
GUAUAU,1.6 ± 0.031,1.75 ± 0.11
GUAUAA,1.501 ± 0.012,1.69 ± 0.088
GUAAAC,1.57 ± 0.017,1.74 ± 0.038
GUAUGU,1.6045 ± 0.00047,1.77 ± 0.087
GUAUGG,1.53 ± 0.16,1.7 ± 0.042
GUAUGC,1.56 ± 0.065,1.75 ± 0.084
GUAGGU,1.6 ± 0.028,1.8 ± 0.1
GUAGGC,1.6 ± 0.064,1.78 ± 0.048
GUAGGG,1.55 ± 0.11,1.71 ± 0.025
GUAAUU,1.689 ± 0.016,1.78 ± 0.054
GUAAUA,1.59 ± 0.044,1.73 ± 0.045
GUAAUC,1.35 ± 0.22,1.56 ± 0.12
CUACGG,1.8 ± 0.061,1.89 ± 0.08
CUACGU,1.73 ± 0.017,1.82 ± 0.081
CUACGC,1.74 ± 0.043,1.86 ± 0.084
GUAGCC,1.69 ± 0.071,1.8 ± 0.11
GUAGCU,1.74 ± 0.065,1.83 ± 0.1
GUAGCG,1.81 ± 0.022,1.88 ± 0.059
AUAGUG,1.56 ± 0.068,1.71 ± 0.083
AUAGUC,1.675 ± 0.0068,1.83 ± 0.088
UUAAGG,1.77 ± 0.047,1.9 ± 0.13
UUAAGC,1.734 ± 0.0092,1.85 ± 0.078

Variant,normalized RNA/DNA level without ligand (log10) [1],normalized RNA/DNA level with ligand (log10) [2]
UUAAGU,1.71 ± 0.02,1.82 ± 0.1
UUACCU,1.74 ± 0.022,1.86 ± 0.069
UUACCG,1.8 ± 0.035,1.88 ± 0.11
CUAAAG,1.64 ± 0.033,1.79 ± 0.055
CUAAAC,1.7 ± 0.018,1.79 ± 0.095
UGUUGG,1.71 ± 0.04,1.86 ± 0.076
UGUUGU,1.72 ± 0.015,1.9 ± 0.061
UGUUGC,1.75 ± 0.026,1.89 ± 0.14
CUAGCC,1.77 ± 0.022,1.83 ± 0.075
CUAGCA,1.71 ± 0.064,1.78 ± 0.13
CUAGCU,1.72 ± 0.027,1.85 ± 0.13
CUAGCG,1.772 ± 0.015,1.85 ± 0.18
UUAUAA,1.6409 ± 0.0011,1.81 ± 0.13
UUAUAC,1.73 ± 0.018,1.86 ± 0.053
UUAUAG,1.71 ± 0.046,1.8 ± 0.11
CUAGUA,1.56 ± 0.046,1.7 ± 0.04
CUAGUU,1.739 ± 0.0023,1.89 ± 0.06
CUAGUG,1.529 ± 0.0021,1.69 ± 0.12
CUAGUC,1.75 ± 0.039,1.83 ± 0.055
CGUUUC,1.59 ± 0.025,1.78 ± 0.11
CGUUUG,1.71 ± 0.02,1.86 ± 0.069
CGUUGA,1.52 ± 0.043,1.71 ± 0.14
CGUUGC,1.78 ± 0.027,1.88 ± 0.071

Variant,normalized RNA/DNA level without ligand (log10) [1],normalized RNA/DNA level with ligand (log10) [2]
CGUUGG,1.737 ± 0.0074,1.85 ± 0.072
CGUUGU,1.76 ± 0.018,1.86 ± 0.1
UUAUCU,1.704 ± 0.0044,1.85 ± 0.083
UUAUCA,1.76 ± 0.11,1.91 ± 0.14
UUAUCG,1.783 ± 0.014,1.86 ± 0.14
GUACGU,1.63 ± 0.039,1.81 ± 0.063
AUAACA,1.62 ± 0.003,1.77 ± 0.14
AUAACC,1.75 ± 0.072,1.83 ± 0.1
AUAACU,1.67 ± 0.025,1.82 ± 0.068
GUAGUG,1.744 ± 0.0031,1.81 ± 0.12
GUAGUC,1.37 ± 0.12,1.55 ± 0.054
GUAGUU,1.61 ± 0.043,1.75 ± 0.061
AUAUGA,1.43 ± 0.066,1.63 ± 0.071
AUAUGC,1.67 ± 0.021,1.83 ± 0.13
AUAUGG,1.56 ± 0.033,1.75 ± 0.14
AUAUGU,1.623 ± 0.0061,1.8 ± 0.15
UUAGGC,1.7 ± 0.021,1.83 ± 0.14
UUAGGG,1.65 ± 0.018,1.8 ± 0.12
UUAGGU,1.7 ± 0.042,1.86 ± 0.1
UUAGGA,1.57 ± 0.079,1.76 ± 0.089
GUACCC,1.75 ± 0.058,1.88 ± 0.097
GUACCG,1.77 ± 0.037,1.84 ± 0.069
GUACCA,1.68 ± 0.044,1.81 ± 0.13

Variant,normalized RNA/DNA level without ligand (log10) [1],normalized RNA/DNA level with ligand (log10) [2]
GUACCU,1.73 ± 0.029,1.83 ± 0.13
CUAUUG,1.626 ± 0.0055,1.81 ± 0.1
CUAUUU,1.59 ± 0.024,1.75 ± 0.08
CUAUUC,1.7 ± 0.012,1.85 ± 0.1
AGUUAU,1.67 ± 0.06,1.86 ± 0.11
GUAUUA,1.578 ± 0.0077,1.75 ± 0.1
GUAUUC,1.48 ± 0.036,1.7 ± 0.11
GUAACU,1.7 ± 0.055,1.82 ± 0.13
GUAACA,1.68 ± 0.035,1.81 ± 0.11
GUAACC,1.77 ± 0.084,1.87 ± 0.092
AUACUC,1.74 ± 0.022,1.87 ± 0.072
AUACUA,1.597 ± 0.0074,1.78 ± 0.18
AUACUG,1.56 ± 0.049,1.73 ± 0.086
AUACUU,1.658 ± 0.0084,1.83 ± 0.13
AUACCC,1.75 ± 0.043,1.89 ± 0.086
AUACCA,1.663 ± 0.0032,1.79 ± 0.11
AUACCU,1.7 ± 0.054,1.85 ± 0.046
AUACGU,1.67 ± 0.043,1.79 ± 0.059
AUACGG,1.58 ± 0.093,1.74 ± 0.056
AUACGC,1.658 ± 0.014,1.81 ± 0.14
CUACCA,1.621 ± 0.016,1.79 ± 0.12
CUACCG,1.82 ± 0.095,1.91 ± 0.098
CUACCU,1.59 ± 0.032,1.77 ± 0.078
